The assay addresses lectin-like oxidized LDL receptor 1 (LOX1) on bEnd.3 cells (mouse (endogenous in bEnd.3)) (UniProt Q9EQ09).
Sequence of UniProt Q9EQ09 (Q9EQ09 whole entry): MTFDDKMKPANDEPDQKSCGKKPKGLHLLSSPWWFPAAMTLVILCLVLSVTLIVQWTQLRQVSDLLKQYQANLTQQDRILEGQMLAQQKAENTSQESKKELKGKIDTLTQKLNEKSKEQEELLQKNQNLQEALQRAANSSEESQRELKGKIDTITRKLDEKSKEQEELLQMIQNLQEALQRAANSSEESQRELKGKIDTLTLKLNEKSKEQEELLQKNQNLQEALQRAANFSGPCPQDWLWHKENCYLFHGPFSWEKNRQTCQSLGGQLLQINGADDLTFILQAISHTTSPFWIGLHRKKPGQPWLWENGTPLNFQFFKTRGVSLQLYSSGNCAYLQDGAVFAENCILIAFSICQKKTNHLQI

As to “Acrolein-modified apolipoprotein E3 (acro-apoE3) (from UniProt P02649 19-317) (natural protein)”, the decrease in uptake of DiI-labeled acro-apoE3/rHDL (3 µg/mL) by bEnd.3 cells pre-treated with anti-LOX1 antibody came out at 80 % decrease.
